The chains are these.
B1: Azoarcus group I ribozyme (parent)
chain: GUGCCUUGCGCCGGGAAACCACGCAAGGGAUGGUGUCAAAUUCGGCGAAACCUAAGCGCCCGCCCGGGCGUAUGGCAACGCCGAGCCAAGCUUCGGCGCCUGCGCCGAUGAAGGUGUAGAGACUAGACGGCACCCACCUAAGGCAAACGCUAUGGUGAAGGCAUAGUCCAGGGAGUGGCGAAAGUCACACAAACCGG

Variants of B1 are the subject of the data set. The experiment in a line: reverse-splicing fitness (ratio to wild type); higher = more active; in vitro selection; Mg2+ level not given. Summed up: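 An in vitro group I ribozyme library with randomized positions was T7-transcribed and gel-purified. In triplicate, 10 pmol RNA in EPPS pH 7.5 was reacted with 50 pmoles of a 30-nt RNA substrate for 1 h at 37 °C across several added MgCl2 levels (1–48 mM), then stopped with EDTA. Products were reverse transcribed from a substrate-complementary primer, PCR-amplified and sequenced (HiSeq 4000). Fitness is a variant's read proportion after selection over that before, normalised to wild type.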
Take C82U A111G A120U A145U C169U: the reverse-splicing fitness amounted to 0.00467. Consider C82U A111G A120U A145U C169A, for which the reverse-splicing fitness was 0.00249. In the case of C82U A111G A120U A145G C150U C169A U176A, the reverse-splicing fitness is 0.00487.

As for C82U A111G A120U A145G C150U C169A U176C, the reverse-splicing fitness worked out at 0.00369. With C82U A111G A120U A145G C150U C169A U176G the figure was 0.00217. With C82U A111G A145C U176C the figure was 0.242. With C82U A111G A145C U176A the figure was 0.178; with C82U A111G A145C U176G, 0.0614; with C82U A111G A120U A145C C150G C169G U176A, 0.00255. Turning to C82U A111G A120U A145C C150G C169G U176G, the reverse-splicing fitness was found to be 0.00197. With C82U A111G A120U A145C C150G C169G U176C the figure was 0.00251; with C82U A111G A120U C150A C169A U176C, 0.00313. With C82U A111G A120U C150A C169A U176A the figure was 0.00374; with C82U A111G A120U C150A C169A U176G, 0.00269; with C82U A111G A145C C169U U176G, 0.00386. With C82U A111G A145C C169U U176C the figure was 0.00903; with C82U A111G A145C C169U U176A, 0.0108; with C82U A111G A145C C169G U176C, 0.0119. As for C82U A111G A145C C169G U176G, the reverse-splicing fitness was determined as 0.00461. Then C82U A111G A145C C169G U176A, with 0.0196. Then C82U A111G A145G C150U, with 0.334; and C82U A111G A145G C150G, with 0.0407; and C82U A111G A145G C150A, with 0.0568. C82U A111G A145C C150U C169U: the reverse-splicing fitness stood at 0.00947. Then C82U A111G A145C C150U C169G, with 0.00755; and C82U A111G A145C C150U C169A, with 0.00735; and C82U A111G A145C C150G C169U U176G, with 0.00478. Then C82U A111G A145C C150G C169U U176A, with 0.00744; and C82U A111G A145C C150G C169U U176C, with 0.00873. Turning to C82U A111G A120U A145U U176C, the reverse-splicing fitness was determined as 0.0196.

For C82U A111G A120U A145U U176A, the reverse-splicing fitness was 0.00945. Then C82U A111G A120U A145U U176G, with 0.004; and C82U A111G A120U A145G C150U C169U U176G, with 0.00238. With C82U A111G A120U A145G C150U C169U U176C the figure was 0.00348; with C82U A111G A120U A145G C150U C169U U176A, 0.00391; with C82U A111G A120U A145U C169U U176G, 0.0016. Regarding C82U A111G A120U A145U C169U U176C, the reverse-splicing fitness is 0.00254. With C82U A111G A120U A145U C169U U176A the figure was 0.00252; with C82U A111G A145C C150G C169A U176G, 0.00511; with C82U A111G A145C C150G C169A U176C, 0.00614. Consider C82U A111G A145C C150G C169A U176A, for which the reverse-splicing fitness was 0.00801. With C82U A111G A120U A145U C150A C169A the figure was 0.00228. In the case of C82U A111G A120U A145U C150A C169U, the reverse-splicing fitness worked out at 0.00292.

On to C82U A111G A120U A145U C150A C169G, for which the reverse-splicing fitness was 0.00226. Then C82U A111G A120U C169U U176G, with 0.0017; and C82U A111G A120U C169U U176A, with 0.00282. For the variant C82U A111G A120U C169U U176C, the reverse-splicing fitness was found to be 0.00442. With C82U A111G A120U A145G C169A U176A the figure was 0.00258; with C82U A111G A120U A145G C169A U176G, 0.00159. Then C82U A111G A120U A145G C169A U176C, with 0.00292.

As to C82U A111G A145C C150A C169A U176C, the reverse-splicing fitness was found to be 0.00627. Then C82U A111G A145C C150A C169A U176A, with 0.0104; and C82U A111G A145C C150A C169A U176G, with 0.00539. Then C82U A111G A120U A145G C169U U176A, with 0.00337. Consider C82U A111G A120U A145G C169U U176G, for which the reverse-splicing fitness is 0.00171. Turning to C82U A111G A120U A145G C169U U176C, the reverse-splicing fitness amounted to 0.00362. For C82U A111G A120U A145C C150U C169U, the reverse-splicing fitness came out at 0.00249.

Regarding C82U A111G A120U A145C C150U C169G, the reverse-splicing fitness was 0.00245. Then C82U A111G A120U A145C C150U C169A, with 0.00187; and C82U A111G A120U C150G C169U U176C, with 0.00396. With C82U A111G A120U C150G C169U U176A the figure was 0.00387; with C82U A111G A120U C150G C169U U176G, 0.00234.

Regarding C82U A111G A120U A145U C150A C169A U176C, the reverse-splicing fitness was found to be 0.00251.

As to C82U A111G A120U A145U C150A C169A U176A, the reverse-splicing fitness amounted to 0.00277. Turning to C82U A111G A120U A145U C150A C169A U176G, the reverse-splicing fitness stood at 0.00195. Then C82U A111G A120U C150U C169G U176A, with 0.00733. Turning to C82U A111G A120U C150U C169G U176C, the reverse-splicing fitness was found to be 0.00322. With C82U A111G A120U C150U C169G U176G the figure was 0.00216; with C82U A111G A120U A145U C150A C169G U176A, 0.00245; with C82U A111G A120U A145U C150A C169G U176C, 0.00253.

On to C82U A111G A120U A145U C150A C169G U176G, for which the reverse-splicing fitness was 0.00148. With C82U A111G A145G C150A C169G the figure was 0.0093; with C82U A111G A145G C150A C169U, 0.01. As to C82U A111G A145G C150A C169A, the reverse-splicing fitness is 0.0102.

On to C82U A111G A120U A145G C150A U176C, for which the reverse-splicing fitness was 0.00749. With C82U A111G A120U A145G C150A U176G the figure was 0.00267; with C82U A111G A120U A145G C150A U176A, 0.00588; with C82U A111G A120U U176G, 0.00489. With C82U A111G A120U U176A the figure was 0.011. With C82U A111G A120U U176C the figure was 0.0192; with C82U A111G A120U C169A U176C, 0.00211; with C82U A111G A120U C169A U176G, 0.00189.

For the variant C82U A111G A120U C169A U176A, the reverse-splicing fitness was found to be 0.0024. With C82U A111G A145G C150G C169A U176C the figure was 0.0111.

Values taken from the RNAGym collection of RNA variant scans (doi:10.1093/molbev/msab373).
